{"source": "patent US20220048967A1", "about": "(published 2022)", "binders": {"B1": {"name": "Example 29 (peptide)", "peptide": "Y[Aib]EGTFTSDYSILLDK([AEEA-AEEA-γGlu-C20 diacid])IAQ[Aib]AFIEYLIEGGPSSGAPPPS-NH2", "modifications": "N-terminus assumed", "SMILES": "CC[C@H](C)[C@H](NC(=O)[C@H](CCCCNC(=O)COCCOCCNC(=O)COCCOCCNC(=O)CC[C@H](NC(=O)CCCCCCCCCCCCCCCCCCC(=O)O)C(=O)O)NC(=O)[C@H](CC(=O)O)NC(=O)[C@H](CC(C)C)NC(=O)[C@H](CC(C)C)NC(=O)[C@@H](NC(=O)[C@H](CO)NC(=O)[C@H](Cc1ccc(O)cc1)NC(=O)[C@H](CC(=O)O)NC(=O)[C@H](CO)NC(=O)[C@@H](NC(=O)[C@H](Cc1ccccc1)NC(=O)[C@@H](NC(=O)CNC(=O)[C@H](CCC(=O)O)NC(=O)C(C)(C)NC(=O)[C@@H](N)Cc1ccc(O)cc1)[C@@H](C)O)[C@@H](C)O)[C@@H](C)CC)C(=O)N[C@@H](C)C(=O)N[C@@H](CCC(N)=O)C(=O)NC(C)(C)C(=O)N[C@@H](C)C(=O)N[C@@H](Cc1ccccc1)C(=O)N[C@H](C(=O)N[C@@H](CCC(=O)O)C(=O)N[C@@H](Cc1ccc(O)cc1)C(=O)N[C@@H](CC(C)C)C(=O)N[C@H](C(=O)N[C@@H](CCC(=O)O)C(=O)NCC(=O)NCC(=O)N1CCC[C@H]1C(=O)N[C@@H](CO)C(=O)N[C@@H](CO)C(=O)NCC(=O)N[C@@H](C)C(=O)N1CCC[C@H]1C(=O)N1CCC[C@H]1C(=O)N1CCC[C@H]1C(=O)N[C@@H](CO)C(N)=O)[C@@H](C)CC)[C@@H](C)CC"}, "B2": {"name": "Example 30 (peptide)", "peptide": "Y[Aib]EGTFTSDYSILLDKIK([AEEA-AEEA-γGlu-C20 diacid])Q[Aib]AFIEYLIEGGPSSGAPPPS-NH2", "modifications": "N-terminus assumed", "SMILES": "CC[C@H](C)[C@H](NC(=O)[C@H](CC(C)C)NC(=O)[C@H](Cc1ccc(O)cc1)NC(=O)[C@H](CCC(=O)O)NC(=O)[C@@H](NC(=O)[C@H](Cc1ccccc1)NC(=O)[C@H](C)NC(=O)C(C)(C)NC(=O)[C@H](CCC(N)=O)NC(=O)[C@H](CCCCNC(=O)COCCOCCNC(=O)COCCOCCNC(=O)CC[C@H](NC(=O)CCCCCCCCCCCCCCCCCCC(=O)O)C(=O)O)NC(=O)[C@@H](NC(=O)[C@H](CCCCN)NC(=O)[C@H](CC(=O)O)NC(=O)[C@H](CC(C)C)NC(=O)[C@H](CC(C)C)NC(=O)[C@@H](NC(=O)[C@H](CO)NC(=O)[C@H](Cc1ccc(O)cc1)NC(=O)[C@H](CC(=O)O)NC(=O)[C@H](CO)NC(=O)[C@@H](NC(=O)[C@H](Cc1ccccc1)NC(=O)[C@@H](NC(=O)CNC(=O)[C@H](CCC(=O)O)NC(=O)C(C)(C)NC(=O)[C@@H](N)Cc1ccc(O)cc1)[C@@H](C)O)[C@@H](C)O)[C@@H](C)CC)[C@@H](C)CC)[C@@H](C)CC)C(=O)N[C@@H](CCC(=O)O)C(=O)NCC(=O)NCC(=O)N1CCC[C@H]1C(=O)N[C@@H](CO)C(=O)N[C@@H](CO)C(=O)NCC(=O)N[C@@H](C)C(=O)N1CCC[C@H]1C(=O)N1CCC[C@H]1C(=O)N1CCC[C@H]1C(=O)N[C@@H](CO)C(N)=O"}}, "key": {"human GIP receptor": {"biological_target": "T1, human GIP receptor (human, UniProt P48546 22-466)", "T1 sequence (looked up)": "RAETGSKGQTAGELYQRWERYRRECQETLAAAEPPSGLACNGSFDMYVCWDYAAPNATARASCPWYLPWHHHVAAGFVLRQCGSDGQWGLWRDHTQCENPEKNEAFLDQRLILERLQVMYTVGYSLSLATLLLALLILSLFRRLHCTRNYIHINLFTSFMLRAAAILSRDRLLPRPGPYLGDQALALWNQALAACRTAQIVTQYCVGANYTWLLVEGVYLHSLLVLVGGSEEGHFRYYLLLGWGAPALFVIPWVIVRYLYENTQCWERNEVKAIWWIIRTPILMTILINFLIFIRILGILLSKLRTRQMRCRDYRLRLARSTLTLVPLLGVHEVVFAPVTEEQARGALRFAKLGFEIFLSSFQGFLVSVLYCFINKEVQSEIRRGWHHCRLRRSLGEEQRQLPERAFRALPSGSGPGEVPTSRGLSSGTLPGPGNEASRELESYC", "experiment": "cell-based or functional assay"}, "human GLP-1 receptor": {"biological_target": "human GLP-1 receptor (human, UniProt P43220 24-463)", "experiment": "cell-based or functional assay"}}, "note": "Numbered stars: 1 amine (or outer) side, 2 acyl side, 3 side chain; on linkers, the order of the positions; unused ones are H or OH. Square brackets hold non-standard residues; d marks the D form. Side chains are listed from the residue outwards. Ends that are not written are not given here. * marks the point of attachment. C20 diacid = O=C(O)CCCCCCCCCCCCCCCCCCC(=O)*; γGlu = O=C(O)[C@H](CCC(=O)[*:2])N[*:1]; AEEA = NCCOCCOCC(=O)O; Aib = CC(C)(N)C(=O)O"}
{"binder": "B1", "values": [{"measurement": "hGIPR cAMP EC50 ratio", "setting": "human GIP receptor", "value": 0.536}, {"measurement": "hGIPR cAMP Rel EC50", "setting": "human GIP receptor", "value": 0.32, "unit": "nM"}, {"measurement": "hGLP1R cAMP EC50 ratio", "setting": "human GLP-1 receptor", "value": 0.0671}, {"measurement": "hGLP1R cAMP Rel EC50", "setting": "human GLP-1 receptor", "value": 0.999, "unit": "nM"}]}
{"binder": "B2", "values": [{"measurement": "hGIPR cAMP EC50 ratio", "setting": "human GIP receptor", "value": 1.5}, {"measurement": "hGIPR cAMP Rel EC50", "setting": "human GIP receptor", "value": 0.114, "unit": "nM"}, {"measurement": "hGLP1R cAMP EC50 ratio", "setting": "human GLP-1 receptor", "value": 0.0331}, {"measurement": "hGLP1R cAMP Rel EC50", "setting": "human GLP-1 receptor", "value": 1.84, "unit": "nM"}]}
